From patent US20110154538A1 (UNITED STATES OF AMERICA AS REPRESENTED BY THE SECRETARY OF …, published 2011) come the findings set out here.

This assay has as its target T1, Gal4 activation domain (AD) negative control (UniProt P04386 768-881).
T1 sequence: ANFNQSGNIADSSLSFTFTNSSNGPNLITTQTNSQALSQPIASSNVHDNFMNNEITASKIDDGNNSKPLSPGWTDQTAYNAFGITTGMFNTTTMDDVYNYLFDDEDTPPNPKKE
The assay can be described thus: yeast two-hybrid, growth on selective medium.

B1: AltMV-Po coat protein (other)
chain: MSTPFPQVTQEQIDAFTPHTTSNLLPSPEQLTTIASLLVAAKVPAASTTTIALELVNFCYDNGSSAYTVVVGPSSISGVSLSQVANIVKASGTSLRKFCRFFAPIIWNLRTDKTPPANWEANGFKPTEKFAAFDFFDGVENPAAMQPPGGLVRAPSQAERIANATNKQVNLFQAAAQDNNFASNSAFITKGQLSSNSPTIQYLPPPE
notes: also called AltMV-Po CP; CP-Po
On to B1, for which the binding result is listed as “no binding”.
